The text below walks through data of the nanobody polyreactivity screen of Harvey et al. (2022).

This data set in a line: yeast display, Sf9 membrane polyspecificity reagent, FACS + sequencing; frameworks hold sequencing errors. The method, boiled down: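 After 36–48 hours of galactose induction, yeast (Saccharomyces cerevisiae BJ5465) displaying a synthetic nanobody library were stained at 4 °C for 1 hour with 10% biotinylated, detergent-solubilized Sf9 membrane reagent. Streptavidin microbeads enriched the stained cells before FACS sorting into low and high (top ~1%) gates on anti-HA and streptavidin fluorescence. Each clone's polyreactivity label reflects its gate of origin.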
Turning to “QVQLVESGGGLVQAGGSLRLRCAASGFTFYRKAMGWYRHAHGKERELVAAITRGGSTTYADSVKGRFTISRDNAKNTVYLQMNSLKPEDTAVYYCAVPQYLYLQAGHGYRYYYWGQGSQVTVSS”, the “polyreactivity (PSR sort gate)” value is “high polyreactivity”.

“QVQLVESGGGLVQAGGSLRLRCAASGGIFGYYAMGLYRQAPGKERDFVAAITLSGGRTYYADSVKGRFTISRDNAKNTVYLQMNSLKPEDTAVYYCAAKGTRRGKERNYWGQGTQVTLSS”: the “polyreactivity (PSR sort gate)” value is “high polyreactivity”.

As to “QVQLVESGGGLVQAGGSLRLRCAASGGTFRYNAMGWYRQAPGKERELVAAISSSGGSTYYADSVKGRFTISRDNAKNTVYLQMNSLKPEDTAVYYCAAKRRRYVELDYWGQGTQVTVSS”, the “polyreactivity (PSR sort gate)” value was “high polyreactivity”.

Take “QVQLVESGGGLVQAGGSLRLRCAASGITLAGYVMGWYRQAPGKERELVADISSSGDSTYYADSVKGRFTISRDNAKNTVYLQMNSLKPEDTAVYYCNADQVWWSFDRVLVGYEYWGQGSQVTVSS”: the “polyreactivity (PSR sort gate)” value is on record as “low polyreactivity”.

“QVQLVESGGGLVQAGGSLRLRCAASGLIFITYAMGRYRQAPGKERELVATITLRGGSTYYADSVKGRFTISRDNAKNTVYLQMNSLKPEDTAVYYCNADSIYYGYDYWGQGTQVTVSS”: the “polyreactivity (PSR sort gate)” value is reported as “low polyreactivity”.

As for “QVQLVESGGGLVQAGGSLRLRCAASGLIFPYYAMGWYRQAPGKERELVAGITSDGSTNYADSVKGRFTLSRDNAKNTVYLQMNSLKPEDTAVYYCNARGVYFWWRLDYWGQGTQVTVSS”, the “polyreactivity (PSR sort gate)” value was “low polyreactivity”.

As for “QVQLVESGGGLVQAGGSLRLRCAASGRIFAPYAMGRYRQAPWKERELVAAIDGSGGSTYYADSVKGRFTISRDNAKNTVYLQMNSLKPEDTAVYYCANRGYYRSQRWYGYWGQGTQVTVSS”, the “polyreactivity (PSR sort gate)” value was “high polyreactivity”.

In the case of “QVQLVESGGGLVQAGGSLRLRCAASGRIFKSYAMGWYRQAPGKERELVAAINWSGGSTYYADSVKGRFTISRDNAKNTVYLQMNSLKPEDTAVYYCNALYAVRSYDSWGQGTQVTVSS”, the “polyreactivity (PSR sort gate)” value is reported as “high polyreactivity”.

Take “QVQLVESGGGLVQAGGSLRLRCAASGRIFREYAMGWYRQAPGKERELVAAITASGGGTYYADSVKGRFTISRDNAKNTVYLQMNSLKPEDTAVYYCAARYSSRTRNDYWGQGTQVTVSS”: the “polyreactivity (PSR sort gate)” value was “low polyreactivity”.

On to “QVQLVESGGGLVQAGGSLRLRCAASGRIFTRNDIGWYRQAPGKERQLVAAISHSGGSTYADSVKGSFTISRDNAKNTVFLQMNRLKPEDTEVYYCAADSPYGYYEGDYWGQGTQVTVSS”, for which the “polyreactivity (PSR sort gate)” value is “low polyreactivity”.

With “QVQLVESGGGLVQAGGSLRLRCAASGRIFTTYAMVWYRQAPGKERELVADITTGGGTYYADSVKGRFTISRDNAKNTVYLQMNSLKPEDTAVYYCNADYSADYYWYYYWGQGTQVTVSS”, the “polyreactivity (PSR sort gate)” value is listed as “low polyreactivity”.

Take “QVQLVESGGGLVQAGGSLRLRCAASGRIVYWYAMGWYIQAPGKERELVATINQSGSSTYYADSVKGRFTISRDNAKNTVYLQMNSLKPEDTAVYYCARARSHYAYYWWNAGTGLDYWGQGTQVTVSS”: the “polyreactivity (PSR sort gate)” value is given as “high polyreactivity”.

On to “QVQLVESGGGLVQAGGSLRLRCAASGRTFAINALGWYRQAPGKEREDVASITTSGGRTYYADSVKGRFTISRDNAKNTVYLQMNSLKPEDTAVYYCNAGSYVGSWRFPYYYWGQGTQVTVSS”, for which the “polyreactivity (PSR sort gate)” value is on record as “high polyreactivity”.

As to “QVQLVESGGGLVQAGGSLRLRCAASGRTFKRKAMGWYRQAPGKEREFVAVITGSGGSTYYADSVKGRFTISRDNAKNTVYLQMNSLKPEDTAVYYCAAALGLRSTSWGRRGGGGVYWGQGTQVTVSS”, the “polyreactivity (PSR sort gate)” value is “high polyreactivity”.

For “QVQLVESGGGLVQAGGSLRLRCAASGRTFKVYAMGWYRQAPGKERELVAAISYSGAGTRYADSVKGRFTISRDNAKNTVYLQMNSLKPEDTAVYYCNTDAWARVKRYEYWGQGTQVTVSS”, the “polyreactivity (PSR sort gate)” value is “low polyreactivity”.

As to “QVQLVESGGGLVQAGGSLRLRCAASGRTFSGYAMGWYRQAPGKERELVAAITSGGNTYYADSVKGRFTISRDNAKNTVYLQMNSLKPEDTAVYYCAVVDYLWLLQLWLSDYWGQGTQVTVSS”, the “polyreactivity (PSR sort gate)” value is “low polyreactivity”.

On to “QVQLVESGGGLVQAGGSLRLRCAASGRTFYSHTMGWYRQAPGKERELVAAIDWSGGRTYYADSVKGRFTISRDNAKNTVYLQMNSLKPEDTAVDYCNTVGYTRRLRSGGYWGQGTQVTVSS”, for which the “polyreactivity (PSR sort gate)” value was “high polyreactivity”.

Regarding “QVQLVESGGGLVQAGGSLRLRCAASGSIFAHYTMGWYRQAPGKERELVAVISRSGARTYYADSVKGRFTISRDNAKNTVYLQMNSLKPEDTEVYYCAADRTLEEDYWGQGTQVTVSS”, the “polyreactivity (PSR sort gate)” value is “low polyreactivity”.

For the sequence “QVQLVESGGGLVQAGGSLRLRCAASGSIFFFYAMGWYRQAPGKERELVAAISKSPSSTYYADSVKGRFTISRDNAKNTVYLQMNSLKPEDTAVYYCNNGYSGIQYYYWGHGTQVTVSS”, the “polyreactivity (PSR sort gate)” value is “low polyreactivity”.

With “QVQLVESGGGLVQAGGSLRLRCAASGSIFHSYAMAWYSQAPGKEREMVASITASVDSTYYADSVKGRFTISRDNAKNTVYLQMNSLIPEDTAVYYCAAEAQFNFYSYDFWGQGTQVTVSS”, the “polyreactivity (PSR sort gate)” value was “low polyreactivity”.

For the sequence “QVQLVESGGGLVQAGGSLRLRCAASGSIFKSNAMGWYRQAPGKERELVAAISNGGITNYADSVKGRFTISRDNAKNTVYLQMNSLKPEDTAVYYCATSDVREIWVDYCGQGTQVTVSS”, the “polyreactivity (PSR sort gate)” value is given as “low polyreactivity”.

Regarding “QVQLVESGGGLVQAGGSLRLRCAASGSIFLVNALGWYRQAPGKEWELVASITWRGGRTYYADSVKGRFTISRDTAKKTVYLQMNRLKPADTAVYYCSALNYRTGERLRYDYWGQGTQVTVSS”, the “polyreactivity (PSR sort gate)” value is reported as “low polyreactivity”.

As for “QVQLVESGGGLVQAGGSLRLRCAASGSIFNSYAMGWYRQAPGKERELVPAISRRGGSTYYADSVKGRFTISRDNAKNTVYLQMHSLKPEDTAVYYCNATRPRLTYLGVGYGYDYWGQGTQVTVSS”, the “polyreactivity (PSR sort gate)” value was “high polyreactivity”.

In the case of “QVQLVESGGGLVQAGGSLRLRCAASGSIFSGNAMGWYRQAPGKESELVAAISVNGGRTYYADSVKGRFTISRDNAKNTVSLQMNSLKPEDTAVYYCNAVTKVVYHGPYGYDYWGQGTQVTVSS”, the “polyreactivity (PSR sort gate)” value is on record as “high polyreactivity”.

On to “QVQLVESGGGLVQAGGSLRLRCAASGSIFWWYTMGWYRQAPGKERELVASISWSGTSTYYADSVKGRFTISRDNAKYTVYLQMNSLKPEDTALYYCNAVVYWPGTPYTHDDWGQGTQVTVSS”, for which the “polyreactivity (PSR sort gate)” value is listed as “low polyreactivity”.

Regarding “QVQLVESGGGLVQAGGSLRLRCAASGSTFAWYAMGWYRQAPGKERELVAAISRTGRTYYADSVKGRFTISRDNAKNTVYLQMNSLKPEDTAVYYCAARIERFYRDQRYDYWGQGTQVTVSS”, the “polyreactivity (PSR sort gate)” value is recorded as “high polyreactivity”.

As to “QVQLVESGGGLVQAGGSLRLRCAASGSTFFRYAMGWYRPAPGKERELLAAITSGGITNYADSVKGRFTISRDNAKNTVYLQMHSLKPEDTAVYYCAKRRTYPGKGRFNYWGQGTQVTVSS”, the “polyreactivity (PSR sort gate)” value is “low polyreactivity”.

As for “QVQLVESGGGLVQAGGSLRLRCAASGSTFGYNAMGWYRQAPGKESELVAAISSSGGTTYYADSVKARFTISRDNAKNTVYLQMNSLKPEDTAVYYCAADHTVGRYEFEFWGQGTQVTVSS”, the “polyreactivity (PSR sort gate)” value was “low polyreactivity”.

Regarding “QVQLVESGGGLVQAGGSLRLRCAASGSTFNRYAMGWYRQAPWKERELVAAINWRGGRTYYADSVKGRFTISRDNAKNTVYLQMNSLKPEDTAVYYCNADVTSLTRVHGRFIVSDDDYWGQGTQVTVSS”, the “polyreactivity (PSR sort gate)” value is reported as “low polyreactivity”.

For the sequence “QVQLVESGGGLVQAGGSLRLRCAASGSTIRCYAMGWYRQAPGKERELVAAIRRGGSTYYADSVKGRFTISRDNAKNTVYLQKNSLKPEVTAVYYCAAEPGYYSRQDYRVYRLYYWGQGTQVTVSS”, the “polyreactivity (PSR sort gate)” value is recorded as “high polyreactivity”.

As for “QVQLVESGGGLVQAGGSLRLRCAASGSTYTVYAMGWYRQAPRKDRELVAAIRDGSSTNYADSVKGRFTISRDNAKNTVYLQRNSLKPEDTAVYYCNAPYPPTGYGDDDYWGQGTQVTVSA”, the “polyreactivity (PSR sort gate)” value is reported as “low polyreactivity”.

“QVQLVESGGGLVQAGGSLRLRCAASGYIIKYNAMGWYRQAPGKERELVAAISSIGGRTYYADSVKGRFTISRDNAKNTVYLQMNSLKPEDTAVYYCNAVGGRYTGWRYDYWGQGPQVTVSS”: the “polyreactivity (PSR sort gate)” value was “high polyreactivity”.

Take “QVQLVESGGGLVQAGGSLRLRCASSGSIFYWYAMGWYRQAPGKERELVAAISRSGGSTYYADSVKGRFTISRDNAKNTVYLQMNSLKPEDTAVYYCATELSYRHGYWGQGTQVTVSS”: the “polyreactivity (PSR sort gate)” value was “high polyreactivity”.

Consider “QVQLVESGGGLVQAGGSLRLRCDASGRTFFKNAMGWYRQAPGKERELVAAITSTGGRTYYADSVKGRFPISRDTAKNNVYVEMNSLKPEDTAVYYCAASNFYSGYYYWRQGTQVTVSS”, for which the “polyreactivity (PSR sort gate)” value is on record as “high polyreactivity”.

Turning to “QVQLVESGGGLVQAGGSLRLRCGASGFIFDQYAMGWYRQAPGKERELVAAITYSGGGTYYADSVKGRFTISRDNAKNTVYLQMNSLKPEDTAVYYCADLFGYSLYDAQYDYWGQGTQVTVSS”, the “polyreactivity (PSR sort gate)” value is reported as “low polyreactivity”.

Regarding “QVQLVESGGGLVQAGGSLRLRFAASGSIFVRNALGWYRQAPGKERELVAAITYSGSRTYSADSVKGRFTISRDNAKNTVYLQMNSLKPEETAVYYCAKVRVLVDKWSTFYEYYYWGQGTQVTVSS”, the “polyreactivity (PSR sort gate)” value is recorded as “low polyreactivity”.

For the sequence “QVQLVESGGGLVQAGGSLRLRSAASGFTFHRYAMGWSRQAPGKERELVAGITRRSGSTFYADSVKGRFTISRDNAKNTVYLQMNSLKPEDTAVYYCAATVPGLHWIYDYWGQGTQVTVSS”, the “polyreactivity (PSR sort gate)” value was “high polyreactivity”.

Consider “QVQLVESGGGLVQAGGSLRLSCAAAGRIFVGYAMGWYRQAPGKERELVAGISRSGYSTYYADSVKGRFTISRDNAKNTVYLQMNSLKPEDTAVYYCAASWYKNPTRYYYWGQGTQVTVSS”, for which the “polyreactivity (PSR sort gate)” value was “high polyreactivity”.

On to “QVQLVESGGGLVQAGGSLRLSCAAAGRTFYPYVMGWYRQAPGKERELVATISWSGGSTYYADSVKGRFTISRDNAKNSVYLQMNSLKPEDTAVYYCAALWPYGYWGQGTQVTVSS”, for which the “polyreactivity (PSR sort gate)” value is listed as “low polyreactivity”.

On to “QVQLVESGGGLVQAGGSLRLSCAAAGSIFYYKTMGWYRQAPGKEREMVAAISWSGGSTSYADSVKGRFTISRDNAKNTVYLQMNSLKPEDTAVYYCNVDYGVHVTARDYWGQGTQVTVSS”, for which the “polyreactivity (PSR sort gate)” value is given as “low polyreactivity”.

For “QVQLVESGGGLVQAGGSLRLSCAAAGSIVWFYAMGWYRQAPGKERELFASISSSGGSTYYADSVKGRFTISRDKAKNPGNIQMNTLKPEYTAVYYCAKRTNWGYWYNSWGQGTQVTVSS”, the “polyreactivity (PSR sort gate)” value was “high polyreactivity”.
